± gives the uncertainty stated by the source.
B1: CD2-associated protein, residues 1 to 59; numbered along this chain, Q9Y5K6 (parent)
chain: MVDYIVEYDYDAVHDDELTIRVGEIIRNVKKLQEEGWLEGELNGRRGMFPDNFVKEIKR

Variants of: B1
Experiment: abundance fitness (aPCA) (normalised: wild type 0, dead -1); higher = more abundant; growth selection in yeast, the domain comes from the species named
Details: Homo sapiens

Abundance fitness, by site and new letter:
I26: N -0.988 ± 0.33; G -0.926 ± 0.26; S -0.79 ± 0.29; R -0.894 ± 0.17; L -0.107 ± 0.085; V -0.177 ± 0.13; C -0.517 ± 0.13; W -0.743 ± 0.23; A -0.636 ± 0.32
R21: P -0.793 ± 0.43; V -0.755 ± 0.12; A -0.826 ± 0.19; Q -0.414 ± 0.24; T -0.593 ± 0.13; S -0.433 ± 0.091; Y -1 ± 0.33; C -0.284 ± 0.1; L -0.358 ± 0.088; M -0.713 ± 0.31; N -0.827 ± 0.37; K -0.28 ± 0.36; H -0.161 ± 0.15
K31: H 0.036 ± 0.17; N -0.311 ± 0.5; S -0.13 ± 0.099; W -0.328 ± 0.12; P 0.089 ± 0.12; R -0.069 ± 0.092; V -0.092 ± 0.093; Q -0.07 ± 0.1; Y -0.159 ± 0.44; T 0.03 ± 0.12; F -0.728 ± 0.33; E -0.061 ± 0.11; C 0.109 ± 0.34; G -0.096 ± 0.083; A 0.053 ± 0.11; I 0.191 ± 0.19; L -0.214 ± 0.09
T19: K -0.464 ± 0.09; L -0.682 ± 0.11; M -0.713 ± 0.18; S -0.033 ± 0.066; R -0.66 ± 0.16; N -0.224 ± 0.11; I -0.753 ± 0.16; F -0.841 ± 0.34; H -0.399 ± 0.23; A -0.756 ± 0.14; W -0.929 ± 0.23; G -0.792 ± 0.17; Y -0.846 ± 0.22; C -0.384 ± 0.11; P -0.685 ± 0.19; D -0.36 ± 0.15; Q -0.498 ± 0.14
L18: R -0.504 ± 0.32; M -0.244 ± 0.11; K -0.737 ± 0.46; Y -0.904 ± 0.43; F -0.846 ± 0.44; S -0.651 ± 0.23; A -0.683 ± 0.34; C -0.661 ± 0.49; V -0.499 ± 0.14
E34: N 0.009 ± 0.16; T -0.028 ± 0.14; M 0.05 ± 0.099; I 0.074 ± 0.24; K 0.075 ± 0.15; D -0.148 ± 0.15; G -0.034 ± 0.072; C 0.094 ± 0.21; P -0.152 ± 0.19; L 0.004 ± 0.072; V -0.006 ± 0.091; Y -0.089 ± 0.3; Q -0.241 ± 0.36; H 0.173 ± 0.18; A -0.048 ± 0.13; W -0.057 ± 0.098; R 0.018 ± 0.077
E35: P 0.051 ± 0.099; Y -0.215 ± 0.15; F -0.158 ± 0.15; L -0.205 ± 0.062; R -0.016 ± 0.062; M -0.189 ± 0.11; W -0.399 ± 0.11; C -0.156 ± 0.093; I -0.062 ± 0.095; H -0.068 ± 0.14; A -0.067 ± 0.058; D -0.032 ± 0.084; S -0.082 ± 0.068; V -0.049 ± 0.066; G -0.071 ± 0.061; N 0.054 ± 0.11; T -0.177 ± 0.067; K 0.027 ± 0.11; Q -0.07 ± 0.092
L32: D -0.223 ± 0.14; N -0.078 ± 0.16; S -0.011 ± 0.078; Y -0.206 ± 0.18; E -0.088 ± 0.27; V 0.074 ± 0.24; K 0.01 ± 0.15; T -0.302 ± 0.21; H -0.001 ± 0.12; A 0.118 ± 0.092; I -0.238 ± 0.15; C 0.003 ± 0.11; M -0.159 ± 0.24; P -0.152 ± 0.13; F 0.016 ± 0.19; G -0.013 ± 0.079
V29: E -0.251 ± 0.24; M -0.883 ± 0.43; I -0.441 ± 0.23; R -1.04 ± 0.31; G -0.261 ± 0.11; D -0.866 ± 0.35; L -0.62 ± 0.22; T -0.378 ± 0.2; S -0.448 ± 0.2; K -0.999 ± 0.28; A -0.069 ± 0.1; C -0.167 ± 0.46
L38: G -0.996 ± 0.28; T -0.548 ± 0.13; F -0.105 ± 0.091; A -0.25 ± 0.1; N -0.558 ± 0.16; R -0.563 ± 0.13; Y -0.27 ± 0.086; M 0.049 ± 0.19; D -0.721 ± 0.38; E -0.867 ± 0.42; H -0.662 ± 0.17; C -0.193 ± 0.11; K -0.264 ± 0.23; P -1.07 ± 0.33; S 0.003 ± 0.074; I -0.433 ± 0.11; V -0.525 ± 0.12
W37: I -0.451 ± 0.18; Q -0.32 ± 0.12; Y -0.02 ± 0.28; G -0.779 ± 0.25; K -0.469 ± 0.35; R -0.298 ± 0.14; T -0.359 ± 0.14; M -0.219 ± 0.15; V -0.253 ± 0.093; S -0.277 ± 0.12; L -0.273 ± 0.075
G36: F -0.622 ± 0.15; T -0.618 ± 0.13; H -0.231 ± 0.1; Q -0.467 ± 0.3; C -0.403 ± 0.11; M -0.433 ± 0.16; Y -0.614 ± 0.15; P -0.143 ± 0.17; V -0.745 ± 0.13; D -0.551 ± 0.1; S -0.352 ± 0.08; R -0.195 ± 0.1; E -0.659 ± 0.38; I -0.632 ± 0.13; L -0.978 ± 0.18; N -0.174 ± 0.12
D16: V -0.088 ± 0.065; S -0.036 ± 0.076; T 0.005 ± 0.09; P -0.434 ± 0.13; Q -0.12 ± 0.15; W -0.08 ± 0.094; Y 0.03 ± 0.14; N 0.001 ± 0.16
R27: F -0.195 ± 0.057; D -0.838 ± 0.18; G -0.148 ± 0.092; T -0.013 ± 0.079; M -0.133 ± 0.18; S -0.064 ± 0.057; C -0.038 ± 0.065; V -0.096 ± 0.076; I -0.155 ± 0.066; L -0.208 ± 0.086; A -0.228 ± 0.079; E -0.081 ± 0.2; N -0.173 ± 0.075; Y -0.291 ± 0.075; H 0.059 ± 0.069; Q -0.147 ± 0.18; K -0.283 ± 0.35
E24: T -0.449 ± 0.14; N -0.412 ± 0.44; R -0.687 ± 0.087; V -0.94 ± 0.24; M -0.387 ± 0.12; F -0.338 ± 0.26; W -0.764 ± 0.18; Q -0.263 ± 0.18; C -0.625 ± 0.13; G -0.341 ± 0.073; D 0.321 ± 0.27
Q33: M -0.238 ± 0.23; I -0.36 ± 0.089; R -0.084 ± 0.083; G 0.015 ± 0.13; E -0.014 ± 0.18; Y -0.242 ± 0.081; N 0.102 ± 0.073; K -0.07 ± 0.12; D 0.065 ± 0.073; V -0.317 ± 0.078; L -0.351 ± 0.068; W -0.474 ± 0.28; S 0.03 ± 0.069; C -0.192 ± 0.099; T 0.006 ± 0.083; F -0.182 ± 0.06; H -0.119 ± 0.091; A -0.071 ± 0.089
N28: V -0.927 ± 0.14; H -0.206 ± 0.14; Q -0.15 ± 0.12; A -0.387 ± 0.093; C -0.215 ± 0.13; L -0.734 ± 0.11; F -0.516 ± 0.12; K -0.262 ± 0.093; P -0.909 ± 0.23; W -0.892 ± 0.28; G -0.025 ± 0.083; S -0.176 ± 0.076; D 0.04 ± 0.091; E -0.185 ± 0.095; T -0.615 ± 0.14
G23: V -0.844 ± 0.21; R -0.856 ± 0.18; S -0.651 ± 0.14; Q -0.557 ± 0.26; C -0.831 ± 0.22; M -0.918 ± 0.34; K -0.383 ± 0.2; I -0.739 ± 0.34; Y -0.522 ± 0.24; W -0.955 ± 0.33; N -0.581 ± 0.24; T -0.755 ± 0.24; L -1.17 ± 0.28; A -0.911 ± 0.29; P -1.04 ± 0.33
K30: C -0.148 ± 0.12; N -0.113 ± 0.16; H 0.111 ± 0.19; W -0.192 ± 0.091; T -0.07 ± 0.11; R -0.071 ± 0.068; D -0.22 ± 0.18; Q -0.31 ± 0.19; I -0.274 ± 0.12; L -0.191 ± 0.09; A -0.181 ± 0.13; F -0.158 ± 0.14; S -0.135 ± 0.095; M 0.018 ± 0.11; G -0.127 ± 0.1; E 0.007 ± 0.18; V -0.166 ± 0.13
I20: F -0.373 ± 0.13; C -0.292 ± 0.14; V -0.225 ± 0.082; D -0.933 ± 0.34; S -0.743 ± 0.2; P -0.762 ± 0.22; N -0.792 ± 0.24; L -0.014 ± 0.057; M -0.019 ± 0.11; A -0.546 ± 0.14; W -0.736 ± 0.39
E17: V -0.747 ± 0.23; C -0.407 ± 0.27; R -0.567 ± 0.14; Q 0.146 ± 0.14; L -0.882 ± 0.25; N -0.421 ± 0.23; F -0.466 ± 0.33; G -0.34 ± 0.095; D -0.13 ± 0.4; M -0.534 ± 0.18; Y -0.736 ± 0.38; T -0.461 ± 0.27; A -0.628 ± 0.13
I25: T -0.064 ± 0.12; E -0.516 ± 0.47; S -0.541 ± 0.14; G -0.718 ± 0.17; Y -0.294 ± 0.18; M -0.28 ± 0.15; R -0.079 ± 0.071; Q -0.338 ± 0.13; H -0.146 ± 0.26; V -0.088 ± 0.13; C -0.392 ± 0.23; A -0.667 ± 0.22; P -0.845 ± 0.25; K -0.043 ± 0.2; W -0.519 ± 0.12
E39: I -0.142 ± 0.17; A -0.146 ± 0.12; H -0.202 ± 0.14; F -0.432 ± 0.19; D -0.541 ± 0.16; K -0.302 ± 0.32; C 0 ± 0.21
V22: F -0.17 ± 0.21; G -0.02 ± 0.19; Y -0.301 ± 0.25; I -0.273 ± 0.15; R -0.082 ± 0.12; L -0.438 ± 0.1; H -0.201 ± 0.18; W -0.703 ± 0.47; M -0.52 ± 0.2; S -0.09 ± 0.086; C -0.304 ± 0.22; E 0.115 ± 0.16; A 0.16 ± 0.15; T -0.067 ± 0.14

— the Human Domainome abundance scans (Beltran et al. 2025)
